Measured values published in article PMC5609902 (2017).

B1: JRFL rgp120 (natural protein)
chain: not shown

Legend:
Test in all cases: SPR
[1] = biological target: CN54 rgp120 (HIV-1 CN54 (CRF07_BC))
[2] = biological target: B1
[3] = biological target: VRC01
[4] = biological target: b12

Binder | koff [1] | koff [2] | Kd [3] | koff [3] | Kd [4] | koff [4]
Y498 IgG1 (antibody, V domains shown) VH: KVQLVQSGTELKKPGASGKVSCKASGYTFNSNGLNWVRQAPGQGLEWVGWISGHSDETKHAQNFQGRLTLTTDTSTNTAYMELRSLRSDDTAVYYCARSLLRSLERLMGGTDAFDIWGQGTLVTVSS VL: not shown | 2.3e-05 s⁻¹ | 0.000105 s⁻¹ |  |  |  | 
B1 |  |  | 5.35 nM | 0.000167 s⁻¹ | 1.11 nM | 0.000567 s⁻¹
